Like-named read-outs stand apart in the source and are kept apart here.

Format in all cases: biochemical, Escherichia coli
Substrate in series [1]: CCCCCCCC/C=C\CCCCCCCC(=O)OC[C@@H](O)COP(=O)(O)O
Nature of the series: phosphate release kinetics, surface dilution model (Km).

Substrate in series [2]: O=P(O)(O)OCC(O)CO
Nature of the series: phosphate release kinetics, Michaelis-Menten (Km). The settings on record: Mg2+.

Substrate in series [3]: O=CC(O)COP(=O)(O)O
As to the kind of experiment: phosphate release kinetics, Michaelis-Menten (Km). The settings on record: Mg2+.

B1: PgpC (Escherichia coli K-12) (protein)
chain: MATHERRVVFFDLDGTLHQQDMFGSFLRYLLRRQPLNALLVLPLLPIIAIALLIKGRAARWPMSLLLWGCTFGHSEARLQTLQADFVRWFRDNVTAFPLVQERLTTYLLSSDADIWLITGSPQPLVEAVYFDTPWLPRVNLIASQIQRGYGGWVLTMRCLGHEKVAQLERKIGTPLRLYSGYSDSNQDNPLLYFCQHRWRVTPRGELQQLE
notes: N-terminal His-tagged PgpC purified in DDM
By Km is commonly meant the concentration of substrate that gives half-maximal velocity. As to B1, in series [1] (Mg2+), the Km is 190.2 µM.

B2: PgpA (Escherichia coli K-12) (protein)
chain: MTILPRHKDVAKSRLKMSNPWHLLAVGFGSGLSPIVPGTMGSLAAIPFWYLMTFLPWQLYSLVVMLGICIGVYLCHQTAKDMGVHDHGSIVWDEFIGMWITLMALPTNDWQWVAAGFVIFRILDMWKPWPIRWFDRNVHGGMGIMIDDIVAGVISAGILYFIGHHWPLGILS
notes: N-terminal His-tagged PgpA purified in DDM
Take B2: the Km in series [2] worked out at 327 µM; in series [3], 765 µM; in series [1] (Mg2+) it was 83.8 µM.

B3: PgpB (Escherichia coli K-12) (protein)
chain: RSIARRTAVGAALLLVMPVAVWISGWRWQPGEQSWLLKAAFWVTETVTQPWGVITHLILFGWFLWCLRFRIKAAFVLFAILAAAILVGQGVKSWIKDKVQEPRPFVIWLEKTHHIPVDEFYTLKRAERGNLVKEQLAEEKNIPQYLRSHWQKETGFAFPSGHTMFAASWALLAVGLLWPRRRTLTIAILLVWATGVMGSRLLLGMHWPRDLVVATLISWALVAVATWLAQRICGPLTPPAEENREIAQREQES
notes: N-terminal His-tagged PgpB purified in DDM
B3: in series [1], the Km came out at 179.6 µM.

Source of the values: article PMC11629553, “Mechanistic diversity and functional roles define the substrate specificity and ligand binding of bacterial PGP phosphatases” (The Journal of Biological Chemistry, 2024).
